Test results reported in patent publication US20190091332A1 (published 2019).
Changes are numbered by the printed parent chain. Numbers in names are those of the source. Each block holds one binder with its values, some of them ahead of it.

Experiments:
human LAG3-huFc [1] = target: T1, human LAG3-huFc (human, UniProt P18627 23-450, limits assumed); assay: flow cytometry competition: antibody pre-incubated with human LAG3-huFc, its binding to Daudi cells (MHC class II) read
T1 construct: also called human LAG3-Fc; huLAG3-huFc; not shown: human Fc (huFc)
T1 sequence: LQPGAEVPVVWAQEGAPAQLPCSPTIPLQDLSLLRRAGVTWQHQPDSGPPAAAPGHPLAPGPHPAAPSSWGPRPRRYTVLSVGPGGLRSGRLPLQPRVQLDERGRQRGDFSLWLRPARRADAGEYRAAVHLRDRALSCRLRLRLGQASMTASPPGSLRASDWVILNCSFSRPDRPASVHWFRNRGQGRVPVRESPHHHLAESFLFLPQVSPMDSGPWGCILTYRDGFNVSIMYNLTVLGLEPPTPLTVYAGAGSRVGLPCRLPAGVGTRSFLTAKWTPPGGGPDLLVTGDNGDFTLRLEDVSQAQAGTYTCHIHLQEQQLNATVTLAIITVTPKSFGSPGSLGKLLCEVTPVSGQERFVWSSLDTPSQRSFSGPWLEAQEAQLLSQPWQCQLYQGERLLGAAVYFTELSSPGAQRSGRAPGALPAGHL
Description: (§1) Mouse anti-human LAG3 clones were tested for their ability to block hLAG3 interaction with human MHC Class II. Daudi cells (ATCC #CCL-213) were used as a cell line positive for human MHC class II expression. Daudi cells were blocked with 10 ug/ml of goat IgG in HBSS and 2% BCS on ice for 30 minutes and 0.5×10⁶ cells/sample were aliquoted into a 96-well V-bottom plate and blocking buffer removed. […] Cells were pelleted by centrifugation at 1200 rpm and washed twice with HBSS/2% BCS. […] Cells were washed twice as described above, resuspended in HBSS/2% BCS and read on the FACSCalibur.

human LAG3-huFc [2] = target: T1, human LAG3-huFc; assay: as above; remark: listed apart in the source
Description: as §1

human LAG3-huFc [3] = target: T1, human LAG3-huFc; assay: flow cytometry competition: antibody pre-incubated with biotinylated human LAG3-huFc, its binding to Daudi cells (MHC class II) read with streptavidin-PE
Description: as §1, with “anti-human LAG3 and humanized anti-LAG3 clones were” for “anti-human LAG3 clones were”

B1: LB148.11C9.1C1 (antibody, V domains shown)
VH: QVQLQQPGAELVMPGASAKMSCKASGYTLTDYWMHWVKQRPGQGLEWIGAIDISDSYSSYNQKFKGKATLTVDESSSTAYMQLTSLTSEDSAVYYCARSPFYNSRGGNYFDYWGQGTTLTVSS
VL: DIQMTQTTSSLSASLGDRVTISCRASQDISNYLNWYQQKPDGTVKLLIYYTSRLHSGVPSRFSGSGSGTDYSLTISNLEQEDIATYFCQQGDTLPPWTFGGGTKLEIK
notes: also called Lag3 clone 11C9; mouse x [LAG3_H] mAb (LB148.11C9.1C1) IgG1/kappa (HY)
IC50 (human LAG3-huFc [1]): 2 nM
IC50 (human LAG3-huFc [2]): 2 nM

B5: 22D2 Chimera ([LAG3_H] mAb (LB145.22D2.E1.D1 (VH0/VL0) Geneart) IgG4 S228P/kappa (PX)) (antibody, V domains shown)
VH: EVLLLQSGPELVKPGTSVKIPCKASGYTFTDYNVDWVKQRHGKGLEWIGDINPNNGGTIYSQKFKGKATLTVDKSSSTAFMELRSLTSEDTAVYFCARNYRWFGAMDHWGQGTSVTVSS
VL: DIVLTQSPASLAVSPGQRATISCKASQSLDYEGDSDMNWYQQKPGQPPRLLISGASNLESGIPARFSGSGSGTDFTVNIHPVEEEDAATYYCQQSTEDPRTFGGGTKLEIK
notes: Chimeric antibody: 22D2 VH0/VL0 variable domains on human IgG4 S228P/kappa; also called Chimeric 22D2; Anti-hLAG3 clone 22D2 (chimeric antibody)
IC50 (human LAG3-huFc [3]): 2.5 nM

B6: Hu22D2 VH6/VL3 (Ab 5) (antibody, human IgG4 S228P, kappa, V domains shown)
VH: QMQLVQSGPEVKKPGTSVKVSCKASGYTFTDYNVDWVRQARGQRLEWIGDINPNNGGTIYAQKFQERVTITVDKSTSTAYMELSSLRSEDTAVYYCARNYRWFGAMDHWGQGTTVTVSS
VL: DIVMTQTPLSLSVTPGQPASISCKASQSLDYEGDSDMNWYLQKPGQPPQLLIYGASNLESGVPDRFSGSGSGTDFTLKISRVEAEDVGVYYCQQSTEDPRTFGGGTKVEIKR
notes: Humanized 22D2, IgG4 S228P/kappa; also called 45AGX light chain / 57AHH heavy chain IgG4 S228P
IC50 (human LAG3-huFc [3]): 2.6 nM

B7: Hu22D2 VH6/VL3 N55S (Ab 7) (antibody, human IgG4 S228P, kappa, V domains shown)
VH: B6 VH with N55S
VL: B6 VL
notes: Humanized 22D2, IgG4 S228P/kappa; also called 45AGX light chain / 21AHG heavy chain IgG4 S228P
IC50 (human LAG3-huFc [3]): 2.1 nM

B9: Hu22D2 VH6/VL3 N55Q (Ab 8) (antibody, human IgG4 S228P, kappa, V domains shown)
VH: B6 VH with N55Q
VL: B6 VL
notes: Humanized 22D2, IgG4 S228P/kappa; also called 45AGX light chain / 80AHG heavy chain IgG4 S228P
IC50 (human LAG3-huFc [3]): 2.5 nM

Results, then the binder that gave them:

IC50 (human LAG3-huFc [1]): 2.8 nM
IC50 (human LAG3-huFc [2]): 2.8 nM
B2: LB148.19E8.G1.1A1 (antibody, V domains shown)
VH: QIRLQQSGPELVKPGASVKISCKASGSSFTDYYINWVKQKPGQGLEWIGWIYPGSGNSIYNENFKAKATLTVDTSSSTAYMHLSSLTSEDTAVYFCAREADYDDALDYWGQGTSVTVSS
VL: HILLTQSPAILSVSPGERVSFSCRASQSIGTSIHWYQQRTNGSPRLLIKYASESISGIPSRFSGSGSGTDFTLSINSVESEDIADYYCQQSNSWPTYTFGGGTKLEIK
notes: also called Lag3 clone 19E8

IC50 (human LAG3-huFc [1]): 1.9 nM
IC50 (human LAG3-huFc [2]): 1.9 nM
B3: LB148.4A10.1H1 (antibody, V domains shown)
VH: EVQLLQSGAELVRSGASVKLSCTASGFNIEDYYMHWMKQRPEQGLEWIGWIDPVNGDTEYAPKFQGKATMTADTSSNTAYLHLNSLTSEDTAVYYCNFYDGYLFAFWGQGTLVTVSA
VL: DIVLTQAAPSVPVTPGESVSISCRSSKSLLHSDGNTYLYWLLQRPGQSPQLLIYRMSNLASGVPDRFSGSGSGTVFTLRISRLEAEDVGIYYCMQHLEYPFTFGGGTKLEIK
notes: also called Lag3 clone 4A10; mouse x [LAG3_H] mAb (LB148.4A10.1H1) IgG2a/kappa (HY)

IC50 (human LAG3-huFc [1]): 2.1 nM
IC50 (human LAG3-huFc [2]): 2.1 nM
B4: LB145.22D2.E1.1D1 (antibody, V domains shown)
VH: B5 VH
VL: B5 VL
notes: also called mouse anti-human LAG3 clone 22D2; Lag3 clone 22D2

IC50 (human LAG3-huFc [3]): 2.4 nM
B8: Hu22D2 VH6/VL3 N55D (Ab 6) (antibody, human IgG4 S228P, kappa, V domains shown)
VH: B6 VH with N55D
VL: B6 VL
notes: Humanized 22D2, IgG4 S228P/kappa; also called Hu2D2; 45AGX light chain / 73AHD heavy chain IgG4 S228P
